The data set addresses T1, ZNF148 (ZBP-89), recombinant (Homo sapiens, UniProt Q9UQR1 1-794).
T1 sequence: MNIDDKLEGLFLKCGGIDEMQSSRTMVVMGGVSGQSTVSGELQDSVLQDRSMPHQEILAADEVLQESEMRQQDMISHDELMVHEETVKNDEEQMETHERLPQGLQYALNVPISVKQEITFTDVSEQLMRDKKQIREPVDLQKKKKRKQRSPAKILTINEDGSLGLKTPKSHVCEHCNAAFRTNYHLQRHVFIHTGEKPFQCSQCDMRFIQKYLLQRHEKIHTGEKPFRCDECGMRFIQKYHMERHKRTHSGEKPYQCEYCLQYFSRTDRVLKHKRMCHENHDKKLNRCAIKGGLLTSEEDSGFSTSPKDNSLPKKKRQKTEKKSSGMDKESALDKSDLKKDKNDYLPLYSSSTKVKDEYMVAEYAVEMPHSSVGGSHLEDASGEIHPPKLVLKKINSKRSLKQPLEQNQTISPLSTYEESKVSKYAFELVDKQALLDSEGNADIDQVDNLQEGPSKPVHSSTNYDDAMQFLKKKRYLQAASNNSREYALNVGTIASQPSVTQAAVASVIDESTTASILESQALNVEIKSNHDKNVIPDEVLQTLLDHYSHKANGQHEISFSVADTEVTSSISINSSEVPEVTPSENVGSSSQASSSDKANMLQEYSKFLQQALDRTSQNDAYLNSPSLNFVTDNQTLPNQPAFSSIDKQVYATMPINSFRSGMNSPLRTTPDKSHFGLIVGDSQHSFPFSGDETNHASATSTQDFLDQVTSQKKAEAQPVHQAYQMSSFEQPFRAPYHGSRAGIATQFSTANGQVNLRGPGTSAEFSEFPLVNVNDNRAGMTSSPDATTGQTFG
Nature of the data set: EMSA; positive control; EMSA: 10 ug nuclear extract or 90-630 ng recombinant ZNF148 with 3'-biotin probe, 20 min on ice, 4-20% TBE gel; antibody preincubation 20 min at room temperature; buffer, salt and pH not stated. Particulars: protein: commercial; label: 3' biotin; blunt. On the technique in general: A gel shift assay detects complexes by their altered migration in electrophoresis.

B1: ZNF148 binding motif, CDKN1A/p21 promoter (dsDNA)
DNA 1: CGCAGGCGAGGGACTGGGGGAGGAGGGAAGTGCCC
DNA 2: GGGCACTTCCCTCCTCCCCCAGTCCCTCGCCTGCG
Take B1: the binding result is reported as “binds”.

The values above are taken from publication PMC5414179, “Functional characterization of a multi-cancer risk locus on chr5p15.33 reveals regulation of TERT by ZNF148”.
